From article PMC9508855

Key:
FnCas12a ΔBH/Δh1 [1] = target: T1, FnCas12a ΔBH/Δh1 (Francisella novicida, UniProt A0Q7Q2 1-1300, del953-1000); assay: EMSA
FnCas12a ΔBH [2] = target: T2, FnCas12a ΔBH (Francisella novicida, UniProt A0Q7Q2 1-1300, del953-969); assay: EMSA
FnCas12a Δh1 [3] = target: T3, FnCas12a Δh1 (Francisella novicida, UniProt A0Q7Q2 1-1300, del972-1000); assay: EMSA
FnCas12a WT = FnCas12a WT (Francisella novicida, UniProt A0Q7Q2 1-1300); assay: mass photometry
FnCas12a ΔBH/Δh1 [4] = target: T1, FnCas12a ΔBH/Δh1; assay: EMSA; remark: listed apart in the source
FnCas12a ΔBH [5] = target: T2, FnCas12a ΔBH; assay: EMSA; remark: listed apart in the source
FnCas12a ΔΔBH = FnCas12a ΔΔBH (Francisella novicida, UniProt A0Q7Q2 1-1300, del953-971); assay: EMSA
FnCas12a Δh1 [6] = target: T3, FnCas12a Δh1; assay: EMSA; remark: listed apart in the source

## AAUUUCUACUGUUGUAGAUGUGAUAAGUGGAAUGCCAUGUGGG (structured_RNA) [crRNA-Cy5 (43 nt)]
FnCas12a ΔBH/Δh1 [1]
  binding signal: 22.9 % of WT
FnCas12a ΔBH [2]
  binding signal: ~50 % of WT
FnCas12a Δh1 [3]
  binding signal: 10.7 % of WT

## AAUUUCUACUGUUGUAGAUGUGAUAAGUGGAAUGCCAUGUGGG (structured_RNA) [crRNA (43 nt)]
FnCas12a WT
  binding result: binds

B1: crRNA + 58 bp target DNA MM 0 (labeled) (mixed)
RNA: AAUUUCUACUGUUGUAGAUGUGAUAAGUGGAAUGCCAUGUGGG
DNA 1: ACTCAATTTTGACAGCCCACATGGCATTCCACTTATCACTAAAGGCATCCTTCCACGT
DNA 2: ACGTGGAAGGATGCCTTTAGTGATAAGTGGAATGCCATGTGGGCTGTCAAAATTGAGT
FnCas12a ΔBH/Δh1 [4]
  binding result: no binding
FnCas12a ΔBH [5]
  binding result: binds
FnCas12a ΔΔBH
  binding result: no binding
FnCas12a Δh1 [6]
  binding result: no binding
